Usually EC50 stands for the concentration giving half of the maximal effect. Usually IC50 stands for the concentration at which inhibition is half-maximal. Low readings indicate higher potency, high ones lower potency.

B1: Fab-108 wild type (Fab)
light: TMELEIHMTQTTSSLSASLGDRVTISCSASQDIRNYLNWYQQKPDGTVKLLIYYTSTLHSGVPSRFSGSGSGTDYSLTISNLEPEDIATYYCQQYSKIPYTFTGGTKLEIKRADAAKLEIKRTVAAPSVFIFPPSDEQLKSGTASVVCLLNNFYPREAKVQWKVDNALQSGNSQESVTEQDSKDSTYSLSSTLTLSKADYEKHKVYACEVTHQGLSSPVTKSFNRGEC
heavy: QVQLLEQVQLQQSGAELMKPGASVKISCKATGYTFSSYWIEWVKQRPGHGLEWIGEILPGSKKTNYNEKFKGKATFTADTSSNTAYMQFSSLTSEDSAVYYCARYYYRNDDYGMDYWGQGTSVTVSSAGPSVFPLAPSSKSTSGGTAALGCLVKDYFPEPVTVSWNSGALTSGVHTFPAVLQSSGLYSLSSVVTVPSSSLGTQTYICNVNHKPSNTKVDKKVEPKSCDKHHHHHH
notes: they may include leaders; also called WT Fab; Fab108 WT
B2: pAcF-scFv-108-(S136) (scFv)
scFv: QVQLQQSGAELMKPGASVKISCKATGYTFSSYWIEWVKQRPGHGLEWIGEILPGSKKTNYNEKFKGKATFTADTSSNTAYMQFSSLTSEDSAVYYCARYYYRNDDYGMDYWGQGTSVTVSSGGGGSGGGGSGGGGXGGGGSEIHMTQTTSSLSASLGDRVTISCSASQDIRNYLNWYQQKPDGTVKLLIYYTSTLHSGVPSRFSGSGSGTDYSLTISNLEPEDIATYYCQQYSKIPYTFTGGTKLEIKRADAAEQKLISEEDLNSAVDHHHHHH
modifications: p-acetyl-phenylalanine (pAcF) in place of Ser136
notes: X stands for pAcF; also called Ser136pAcF; pAcF-scFv-(S136)
B3: pAcF-scFv-108-(S136) conjugated to 5K PEG (scFv)
scFv: QVQLQQSGAELMKPGASVKISCKATGYTFSSYWIEWVKQRPGHGLEWIGEILPGSKKTNYNEKFKGKATFTADTSSNTAYMQFSSLTSEDSAVYYCARYYYRNDDYGMDYWGQGTSVTVSSGGGGSGGGGSGGGGXGGGGSEIHMTQTTSSLSASLGDRVTISCSASQDIRNYLNWYQQKPDGTVKLLIYYTSTLHSGVPSRFSGSGSGTDYSLTISNLEPEDIATYYCQQYSKIPYTFTGGTKLEIKRADAAEQKLISEEDLNSAVDHHHHHH
modifications: p-acetyl-phenylalanine (pAcF) in place of Ser136, conjugated to mono-functional hydroxylamine 5K PEG
notes: also called Ser136pAcF-5K PEG
B4: scFv-108 Tyr190pAcF (scFv)
scFv: QVQLQQSGAELMKPGASVKISCKATGYTFSSYWIEWVKQRPGHGLEWIGEILPGSKKTNYNEKFKGKATFTADTSSNTAYMQFSSLTSEDSAVYYCARYYYRNDDYGMDYWGQGTSVTVSSGGGGSGGGGSGGGGSGGGGSEIHMTQTTSSLSASLGDRVTISCSASQDIRNYLNWYQQKPDGTVKLLIXYTSTLHSGVPSRFSGSGSGTDYSLTISNLEPEDIATYYCQQYSKIPYTFTGGTKLEIKRADAAEQKLISEEDLNSAVDHHHHHH
modifications: p-acetyl-phenylalanine (pAcF) in place of Tyr190
notes: X stands for pAcF
B5: scFv-108 Lys248pAcF (scFv)
scFv: QVQLQQSGAELMKPGASVKISCKATGYTFSSYWIEWVKQRPGHGLEWIGEILPGSKKTNYNEKFKGKATFTADTSSNTAYMQFSSLTSEDSAVYYCARYYYRNDDYGMDYWGQGTSVTVSSGGGGSGGGGSGGGGSGGGGSEIHMTQTTSSLSASLGDRVTISCSASQDIRNYLNWYQQKPDGTVKLLIYYTSTLHSGVPSRFSGSGSGTDYSLTISNLEPEDIATYYCQQYSKIPYTFTGGTKLEIXRADAAEQKLISEEDLNSAVDHHHHHH
modifications: p-acetyl-phenylalanine (pAcF) in place of Lys248
notes: X stands for pAcF
B6: pAcF-scFv-108-(S131) (scFv)
scFv: QVQLQQSGAELMKPGASVKISCKATGYTFSSYWIEWVKQRPGHGLEWIGEILPGSKKTNYNEKFKGKATFTADTSSNTAYMQFSSLTSEDSAVYYCARYYYRNDDYGMDYWGQGTSVTVSSGGGGSGGGGXGGGGSGGGGSEIHMTQTTSSLSASLGDRVTISCSASQDIRNYLNWYQQKPDGTVKLLIYYTSTLHSGVPSRFSGSGSGTDYSLTISNLEPEDIATYYCQQYSKIPYTFTGGTKLEIKRADAAEQKLISEEDLNSAVDHHHHHH
modifications: p-acetyl-phenylalanine (pAcF) in place of Ser131
notes: S131 is the second serine of the GlySer linker; X stands for pAcF; also called Ser131pAcF; S131Am
B7: pAcF-scFv-108-(S131) conjugated to 5K PEG (scFv)
scFv: QVQLQQSGAELMKPGASVKISCKATGYTFSSYWIEWVKQRPGHGLEWIGEILPGSKKTNYNEKFKGKATFTADTSSNTAYMQFSSLTSEDSAVYYCARYYYRNDDYGMDYWGQGTSVTVSSGGGGSGGGGXGGGGSGGGGSEIHMTQTTSSLSASLGDRVTISCSASQDIRNYLNWYQQKPDGTVKLLIYYTSTLHSGVPSRFSGSGSGTDYSLTISNLEPEDIATYYCQQYSKIPYTFTGGTKLEIKRADAAEQKLISEEDLNSAVDHHHHHH
modifications: p-acetyl-phenylalanine (pAcF) in place of Ser131, conjugated to mono-functional hydroxylamine 5K PEG
notes: also called Ser131pAcF-5K PEG
B8: pAcF-scFv-108-(L156) (scFv)
scFv: QVQLQQSGAELMKPGASVKISCKATGYTFSSYWIEWVKQRPGHGLEWIGEILPGSKKTNYNEKFKGKATFTADTSSNTAYMQFSSLTSEDSAVYYCARYYYRNDDYGMDYWGQGTSVTVSSGGGGSGGGGSGGGGSGGGGSEIHMTQTTSSLSASXGDRVTISCSASQDIRNYLNWYQQKPDGTVKLLIYYTSTLHSGVPSRFSGSGSGTDYSLTISNLEPEDIATYYCQQYSKIPYTFTGGTKLEIKRADAAEQKLISEEDLNSAVDHHHHHH
modifications: p-acetyl-phenylalanine (pAcF) in place of Leu156
notes: L156 lies in the VL chain; X stands for pAcF; also called Leu156pAcF
B9: scFv-108 Ser193pAcF (scFv)
scFv: QVQLQQSGAELMKPGASVKISCKATGYTFSSYWIEWVKQRPGHGLEWIGEILPGSKKTNYNEKFKGKATFTADTSSNTAYMQFSSLTSEDSAVYYCARYYYRNDDYGMDYWGQGTSVTVSSGGGGSGGGGSGGGGSGGGGSEIHMTQTTSSLSASLGDRVTISCSASQDIRNYLNWYQQKPDGTVKLLIYYTXTLHSGVPSRFSGSGSGTDYSLTISNLEPEDIATYYCQQYSKIPYTFTGGTKLEIKRADAAEQKLISEEDLNSAVDHHHHHH
modifications: p-acetyl-phenylalanine (pAcF) in place of Ser193
notes: X stands for pAcF
B10: scFv-108 wild type (periplasmic, VH-(GGGGS)4-VL-myc-6xHis) (scFv)
scFv: QVQLQQSGAELMKPGASVKISCKATGYTFSSYWIEWVKQRPGHGLEWIGEILPGSKKTNYNEKFKGKATFTADTSSNTAYMQFSSLTSEDSAVYYCARYYYRNDDYGMDYWGQGTSVTVSSGGGGSGGGGSGGGGSGGGGSEIHMTQTTSSLSASLGDRVTISCSASQDIRNYLNWYQQKPDGTVKLLIYYTSTLHSGVPSRFSGSGSGTDYSLTISNLEPEDIATYYCQQYSKIPYTFTGGTKLEIKRADAAEQKLISEEDLNSAVDHHHHHH
notes: also called WT scFv
B11: scFv-108 Ser259pAcF (scFv)
scFv: QVQLQQSGAELMKPGASVKISCKATGYTFSSYWIEWVKQRPGHGLEWIGEILPGSKKTNYNEKFKGKATFTADTSSNTAYMQFSSLTSEDSAVYYCARYYYRNDDYGMDYWGQGTSVTVSSGGGGSGGGGSGGGGSGGGGSEIHMTQTTSSLSASLGDRVTISCSASQDIRNYLNWYQQKPDGTVKLLIYYTSTLHSGVPSRFSGSGSGTDYSLTISNLEPEDIATYYCQQYSKIPYTFTGGTKLEIKRADAAEQKLIXEEDLNSAVDHHHHHH
modifications: p-acetyl-phenylalanine (pAcF) in place of Ser259
notes: X stands for pAcF
B12: pAcF-scFv-108-(L156) conjugated to 5K PEG (scFv)
scFv: QVQLQQSGAELMKPGASVKISCKATGYTFSSYWIEWVKQRPGHGLEWIGEILPGSKKTNYNEKFKGKATFTADTSSNTAYMQFSSLTSEDSAVYYCARYYYRNDDYGMDYWGQGTSVTVSSGGGGSGGGGSGGGGSGGGGSEIHMTQTTSSLSASXGDRVTISCSASQDIRNYLNWYQQKPDGTVKLLIYYTSTLHSGVPSRFSGSGSGTDYSLTISNLEPEDIATYYCQQYSKIPYTFTGGTKLEIKRADAAEQKLISEEDLNSAVDHHHHHH
modifications: p-acetyl-phenylalanine (pAcF) in place of Leu156, conjugated to mono-functional hydroxylamine 5K PEG
notes: also called Leu156pAcF-5K PEG
B13: scFv-108 His144pAcF (scFv)
scFv: QVQLQQSGAELMKPGASVKISCKATGYTFSSYWIEWVKQRPGHGLEWIGEILPGSKKTNYNEKFKGKATFTADTSSNTAYMQFSSLTSEDSAVYYCARYYYRNDDYGMDYWGQGTSVTVSSGGGGSGGGGSGGGGSGGGGSEIXMTQTTSSLSASLGDRVTISCSASQDIRNYLNWYQQKPDGTVKLLIYYTSTLHSGVPSRFSGSGSGTDYSLTISNLEPEDIATYYCQQYSKIPYTFTGGTKLEIKRADAAEQKLISEEDLNSAVDHHHHHH
modifications: p-acetyl-phenylalanine (pAcF) in place of His144
notes: X stands for pAcF

One assay addresses T1, EGF receptor (on A431 cells) (UniProt P00533 25-1210, limits assumed).
T1 construct: whole, on cells; also called EGF receptors
Nature of the assay: flow cytometry on A431 cells; Fab detected with anti-His antibody and APC-labeled anti-mouse antibody. The procedure:
(§1) Unbound scFv proteins were removed by washing following centrifugation (repeated 2-3 times). […] After two washes, the cells were incubated with an APC-labeled (allophycocyanin) anti-mouse antibody (10 ug/ml) for 30 minutes on ice. After washing the cells two times to remove the secondary antibody, the cells were re-suspended in FACS buffer supplemented with propidium iodine (0.5 ug/ml), and analyzed by flow cytometry. […] Fab binding was detected using an anti-His antibody followed by an APC-labeled anti-mouse secondary antibody.
PEGylation of the Fab fragments results in a minimal decrease in the affinity of the fragments to the EGF receptors. Binding conditions were as described previously.
As for B1, a half-maximal effect (EC50) was put at 4 nM and the “EC50 relative to wild type Fab” value worked out at 1 x.

Another assay concerns the target T1, EGF receptor (on A431 cells). Nature of the assay: Flow cytometry competition on A431 cells expressing EGF receptors: cells incubated with the scFv at varied concentration and washed, then mAb108 (competitor, 7.5 nM) detected with APC-labeled anti-mouse antibody; y axis Median. The procedure:
as §1
(§2) Cells were incubated with the scFv proteins at various concentrations after washing to remove unbound scFv's, and the cells were treated with the mAb108 as described above. All proteins were expressed in the periplasm. Table 11 summarizes the binding of the modified scFv's (pAcF and pAcF with PEG) relative to the wild type scFv: […]
A general note: In flow cytometry, cells or beads pass a laser one at a time.
As for B2, the IC50 was 13.1 nM. For B3, the IC50 amounted to 51 nM.

The target is the same in another assay. Description: competition flow cytometry on A431 cells against mAb-108 (7.5 nM). The procedure:
as §1, §2
Consider B2, for which the “IC50 relative to wild type scFv” value was 1.6 x.

Regarding B4, the “IC50 relative to wild type scFv” value came to 2.1 x. The same measure, in the same setting: the same measure for B5: 2.1 x; for B6: 1.3 x; for B3: 6.3 x. B7: the “IC50 relative to wild type scFv” value came to 5 x. B8: the “IC50 relative to wild type scFv” value was found to be 1.8 x.

Take B9: the “IC50 relative to wild type scFv” value amounted to 1.8 x. As to B10, the half-maximal inhibitory concentration (IC50) came out at 8.1 nM and the “IC50 relative to wild type scFv” value amounted to 1 x.

For the molecule B11, the “IC50 relative to wild type scFv” value was determined as 0.5 x.

On to B12, for which the “IC50 relative to wild type scFv” value turned out to be 2.9 x. With B13, the “IC50 relative to wild type scFv” value was determined as 2.6 x.
